From patent publication US20250281611A1 (BIOSCEPTRE AUST, published 2025)

T1: CD19 (UniProt P15391 20-556, limits assumed)
T1 construct: whole, on cells; also called CD19 on JeKo-1
T1 sequence (looked up): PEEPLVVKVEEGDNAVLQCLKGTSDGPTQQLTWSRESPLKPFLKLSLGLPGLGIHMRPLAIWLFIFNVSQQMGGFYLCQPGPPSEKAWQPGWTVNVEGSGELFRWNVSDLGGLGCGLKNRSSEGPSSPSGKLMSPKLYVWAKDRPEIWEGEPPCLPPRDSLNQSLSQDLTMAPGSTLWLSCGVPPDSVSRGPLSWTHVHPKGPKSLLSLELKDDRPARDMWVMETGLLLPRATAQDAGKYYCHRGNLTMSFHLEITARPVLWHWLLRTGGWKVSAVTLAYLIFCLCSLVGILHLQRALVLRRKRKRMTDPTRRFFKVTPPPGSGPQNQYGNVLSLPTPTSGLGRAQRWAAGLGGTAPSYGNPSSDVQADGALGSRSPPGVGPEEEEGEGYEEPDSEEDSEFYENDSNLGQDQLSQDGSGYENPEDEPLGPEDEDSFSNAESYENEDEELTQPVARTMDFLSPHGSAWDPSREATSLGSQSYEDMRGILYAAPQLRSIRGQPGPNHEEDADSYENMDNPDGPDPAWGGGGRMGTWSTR

B1: CD33 PURIFIED BRIDGE (Fab, V domains shown)
VH: QVQLVQSGAEVKKPGSSVKVSCKASGYTFTDYNMHWVRQAPGQGLEWIGYIYPYNGGTGYNQKFKSKATITADESTNTAYMELSSLRSEDTAVYYCARGRPAMDYWGQGTLVTVSS
VL: DIQMTQSPSSLSASVGDRVTITCRASESVDNYGISFMNWFQQKPGKAPKLLIYAASNQGSGVPSRFSGSGSGTDFTLTISSLQPDDFATYYCQQSKEVPWTFGQGTKVEIKR
notes: also called old variant; original E200 CD33 Fab bridging molecule derived from lintuzumab
B2: CD19 BRIDGE variant B4 (Fab)
heavy: EVQLVESGGGLVKPGGSLKLSCAASGYTFTSYVMHWVRQAPGKGLEWIGYINPYNDGTKYNEKFQGRVTISSDKSISTAYMELSSLRSEDTAMYYCARGTYYYGTRVFDYWGQGTLVTVSSASTKGPSVFPLAPSSKSTSGGTAALGCLVKDYFPEPVTVSWNSGALTSGVHTFPAVLQSSGLYSLSSVVTVPSSSLGTQTYICNVNHKPSNTKVDKKVEPKSCHHHHHH
light: GHNYTTRNILPGLNITSTFHKTSGSGKEPKSSDKTHTDIVMTQSPATLSLSPGERATLSCRSSKSLQNVNGNTYLYWFQQKPGQSPQLLIYRMSNLNSGVPDRFSGSGSGTEFTLTISSLEPEDFAVYYCMQHLEYPITFGAGTKLEIKRTVAAPSVFIFPPSDEQLKSGTASVVCLLNNFYPREAKVQWKVDNALQSGNSQESVTEQDSKDSTYSLSSTLTLSKADYEKHKVYACEVTHQGLSSPVTKSFNRGEC
B3: CD19 BRIDGE variant B5 (Fab)
heavy: B2 heavy
light: GHNYTTRNILPGLNITSTFHKTSGSGKGSEPKSSDKTHTDIVMTQSPATLSLSPGERATLSCRSSKSLQNVNGNTYLYWFQQKPGQSPQLLIYRMSNLNSGVPDRFSGSGSGTEFTLTISSLEPEDFAVYYCMQHLEYPITFGAGTKLEIKRTVAAPSVFIFPPSDEQLKSGTASVVCLLNNFYPREAKVQWKVDNALQSGNSQESVTEQDSKDSTYSLSSTLTLSKADYEKHKVYACEVTHQGLSSPVTKSFNRGEC
B4: CD19 BRIDGE variant B6 (Fab)
heavy: B2 heavy
light: GHNYTTRNILPGLNITSTFHKTSGSGKGGGSEPKSSDKTHTDIVMTQSPATLSLSPGERATLSCRSSKSLQNVNGNTYLYWFQQKPGQSPQLLIYRMSNLNSGVPDRFSGSGSGTEFTLTISSLEPEDFAVYYCMQHLEYPITFGAGTKLEIKRTVAAPSVFIFPPSDEQLKSGTASVVCLLNNFYPREAKVQWKVDNALQSGNSQESVTEQDSKDSTYSLSSTLTLSKADYEKHKVYACEVTHQGLSSPVTKSFNRGEC
B5: CD19 BRIDGE variant B10 (Fab)
heavy: B2 heavy
light: GHNYTTRNILPGLNITSTFHKTSGSGKEPKSSDKTHTGSDIVMTQSPATLSLSPGERATLSCRSSKSLQNVNGNTYLYWFQQKPGQSPQLLIYRMSNLNSGVPDRFSGSGSGTEFTLTISSLEPEDFAVYYCMQHLEYPITFGAGTKLEIKRTVAAPSVFIFPPSDEQLKSGTASVVCLLNNFYPREAKVQWKVDNALQSGNSQESVTEQDSKDSTYSLSSTLTLSKADYEKHKVYACEVTHQGLSSPVTKSFNRGEC
B6: CD19 BRIDGE variant B1 (Fab, V domains shown)
VH: EVQLVESGGGLVKPGGSLKLSCAASGYTFTSYVMHWVRQAPGKGLEWIGYINPYNDGTKYNEKFQGRVTISSDKSISTAYMELSSLRSEDTAMYYCARGTYYYGTRVFDYWGQGTLVTVSS
VL: DIVMTQSPATLSLSPGERATLSCRSSKSLQNVNGNTYLYWFQQKPGQSPQLLIYRMSNLNSGVPDRFSGSGSGTEFTLTISSLEPEDFAVYYCMQHLEYPITFGAGTKLEIKR
B7: CD19 BRIDGE variant B2 (Fab, V domains shown)
VH: B6 VH
VL: B6 VL
B8: CD19 BRIDGE variant B3 (Fab, V domains shown)
VH: B6 VH
VL: B6 VL
B9: CD19 BRIDGE variant B7 (Fab, V domains shown)
VH: B6 VH
VL: B6 VL

What follows are binders tested against T2, nfP2X7 CAR 1 (assay: flow cytometry, CAR T cells, anti-His-FITC, EGFR+ over EGFR- cells).
T2 construct: Expressed on T cells with truncated EGFR as marker gene; also called anti-nfP2X7 receptor CAR 1; nfP2X7 targeted CAR on EGFR+ T cells
How it was run: (§1)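 CAR T cells incubated with BRiDGE variants at saturating concentrations; bound BRiDGE detected with anti-His-FITC by flow cytometry. EGFR marks CAR expression. Value is median fluorescence intensity on EGFR+ (CAR+) cells divided by that on EGFR− (CAR−) cells.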

With B1 the “HisTag MFI Ratio of EGFR+/EGFR-” value was 4.

Each binder was assayed against T1, CD19 (assay: flow cytometry, JeKo-1 cells, bridge at saturating conc., BIL03s-AF647 detection).
Description: (§2) JeKo-1 cells were incubated with different CD19 BRiDGE variants at saturating concentrations. […] The MFI intensity correlates with the number of secondary bound antibodies bound to the CD19 BRiDGE variants that are only detected if they are bound to the JeKo-1 cells. MFI: median fluorescence intensity. BLitz: Bio-Layer interferometry (BLI) technology using HIS-tag identification tips. […] The higher the MFIR, the stronger the binding.

First: B2
Second: B3
The “MFI Bil03 AF647” value of the first is higher: 9.02 for the first, 5.5 for the second.

Compared with B4, B5 is higher in “MFI Bil03 AF647” value: 5.29 for the first, 7.71 for the second.

Going from B6 to B7, the “MFI Bil03 AF647” value rises from 3.19 to 4.17.

First: B8
Second: B9
The “MFI Bil03 AF647” value of the first is lower: 5.43 for the first, 7.57 for the second.

These binders were tested against T1, CD19 (assay: flow cytometry, JeKo-1 cells, anti-His-FITC detection, MFI over no-bridge control).
Description: as §2

First: B2
Second: B3
The “MFIR HisTag FITC” value of the first is higher: 5.05 for the first, 4.42 for the second.

First: B4
Second: B5
The “MFIR HisTag FITC” value of the first is higher: 4.32 for the first, 4.25 for the second.

Compared with B6, B7 is higher in “MFIR HisTag FITC” value: 4.17 for the first, 4.51 for the second.

Compared with B8, B9 is lower in “MFIR HisTag FITC” value: 4.71 for the first, 4.3 for the second.

What follows are binders tested against T3, CD33 (UniProt P20138 18-364, limits assumed) (assay: flow cytometry, MOLM-13 cells, anti-His-FITC detection).
T3 construct: whole, on cells; also called Siglec-3; CD33 on MOLM-13 cells
T3 sequence (P20138 18-364 limits assumed): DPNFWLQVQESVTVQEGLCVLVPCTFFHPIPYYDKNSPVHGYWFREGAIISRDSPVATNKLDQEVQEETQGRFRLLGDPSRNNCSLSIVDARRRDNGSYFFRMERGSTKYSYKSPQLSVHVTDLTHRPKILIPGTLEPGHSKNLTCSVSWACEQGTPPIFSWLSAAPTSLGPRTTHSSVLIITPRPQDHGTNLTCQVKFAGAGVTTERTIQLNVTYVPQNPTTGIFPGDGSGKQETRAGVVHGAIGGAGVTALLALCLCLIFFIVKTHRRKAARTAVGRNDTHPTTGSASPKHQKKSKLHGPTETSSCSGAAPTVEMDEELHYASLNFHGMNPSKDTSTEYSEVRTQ
Description: as §2, with “MOLM-13” for “JeKo-1”, “CD33 BRIDGE” for “CD19 BRiDGE”, “secondary” for “secondary bound”, “BLItz:” for “BLitz:”

For B1, the “MFI HisTag FITC” value was 7.12.

What follows are binders tested against T4, nfP2X7 CAR 1 (assay: flow cytometry, anti-His-FITC, MFI on EGFR+ (CAR+) over EGFR- (CAR-) T cells).
T4 construct: CAR-positive cells gated by the co-expressed EGFR marker; also called nfP2X7 targeted CAR; nfP2X7 CAR on EGFR+ T cells
Description: (§3) nfP2X₇ CAR T cells were incubated with different BRiDGE variants at saturating concentrations. […] The MFI intensity correlates with the number of secondary bound antibodies bound to the BRiDGEs that are only detected if they are bound to the CAR T cells. EGFR was used as a marker gene to detect the CAR expression. Thus, the EGFR+ T cell population was defined as the CAR expressing cells and the EGFR− T cell population was defined as the CAR negative subset. MFI: median fluorescence intensity. EGFR: epidermal growth factor receptor. BLItz: Bio-Layer interferometry (BLI) technology using HIS-tag identification tips. HIS-tag MFI Ratio: relative index that is calculated by the testing condition MFI divided by the control MFI, which corresponds to the MFI measured on EGFR+ T cells (defined as CAR positive cells) divided by the MFI measured on the EGFR− T cells (defined as CAR negative cells). […] The higher the MFIR, the stronger the binding.

Compared with B2, B3 is higher in “HisTag MFI Ratio of EGFR+/EGFR-” value: 4.1 for the first, 4.2 for the second.

First: B4
Second: B5
The “HisTag MFI Ratio of EGFR+/EGFR-” value of the first is lower: 4.1 for the first, 4.3 for the second.

First: B6
Second: B7
The “HisTag MFI Ratio of EGFR+/EGFR-” value of the first is lower: 4 for the first, 4.1 for the second.

Compared with B8, B9 is lower in “HisTag MFI Ratio of EGFR+/EGFR-” value: 4.1 for the first, 4 for the second.

Each binder was assayed against T4, nfP2X7 CAR 1 (assay: flow cytometry, anti-His-FITC, MFI on EGFR+ (CAR+) T cells over background 0.44).
Description: as §3

B2 and B3 are the same in “HisTag MFI Ratio (background 0.44)” value: 4.7 for the first, 4.7 for the second.

Going from B4 to B5, the “HisTag MFI Ratio (background 0.44)” value rises from 4.5 to 5.1.

Compared with B6, B7 is lower in “HisTag MFI Ratio (background 0.44)” value: 4.8 for the first, 4.7 for the second.

First: B8
Second: B9
The “HisTag MFI Ratio (background 0.44)” value of the first is lower: 4.7 for the first, 5 for the second.

What follows are binders tested against T1, CD19 (assay: flow cytometry, JeKo-1 cells, BIL03s-AF647 detection, MFI over no-bridge control).
Description: as §2

Compared with B2, B3 is lower in “MFIR BIL03 AF647” value: 19.6 for the first, 12 for the second.

First: B4
Second: B5
The “MFIR BIL03 AF647” value of the first is lower: 11.5 for the first, 16.8 for the second.

Compared with B6, B7 is higher in “MFIR BIL03 AF647” value: 6.93 for the first, 9.07 for the second.

Going from B8 to B9, the “MFIR BIL03 AF647” value rises from 11.8 to 16.5.

What follows are binders tested against T4, nfP2X7 CAR 1 (assay: flow cytometry, nfP2X7 CAR 1 T cells (EGFR+ gate), anti-His-FITC detection).
Description: as §3

Compared with B2, B3 is higher in “MFI HisTag FITC in EGFR+ Population” value: 2.05 for the first, 2.08 for the second.

First: B4
Second: B5
The “MFI HisTag FITC in EGFR+ Population” value of the first is lower: 1.99 for the first, 2.26 for the second.

First: B6
Second: B7
The “MFI HisTag FITC in EGFR+ Population” value of the first is higher: 2.1 for the first, 2.07 for the second.

Compared with B8, B9 is higher in “MFI HisTag FITC in EGFR+ Population” value: 2.05 for the first, 2.22 for the second.

What follows are binders tested against T3, CD33 (assay: flow cytometry, MOLM-13 cells, anti-His-FITC detection, ratio to no bridge).
Description: as §2, with “MOLM-13” for “JeKo-1”, “CD33 BRIDGE” for “CD19 BRiDGE”, “secondary” for “secondary bound”, “BLItz:” for “BLitz:”

With B1 the “MFIR HisTag FITC” value was 10.6.

What follows are binders tested against T2, nfP2X7 CAR 1 (assay: flow cytometry, nfP2X7 CAR T cells (EGFR+), anti-His-FITC detection).

B1 was tested, and the “MFI HisTag FITC in EGFR+ Population” value was 1.58.

What follows are binders tested against T2, nfP2X7 CAR 1 (assay: flow cytometry, CAR T cells, anti-His-FITC, EGFR+ MFI over background 0.4).
How it was run: as §1

In the case of B1, the “HisTag MFI Ratio (background 0.4)” value is reported as 4.

These binders were tested against T1, CD19 (assay: flow cytometry, JeKo-1 cells, bridge at saturating conc., anti-His-FITC detection).
Description: as §2

Compared with B2, B3 is lower in “MFI HisTag FITC” value: 3.89 for the first, 3.4 for the second.

Going from B4 to B5, the “MFI HisTag FITC” value falls from 3.33 to 3.27.

First: B6
Second: B7
The “MFI HisTag FITC” value of the first is lower: 3.21 for the first, 3.47 for the second.

Compared with B8, B9 is lower in “MFI HisTag FITC” value: 3.63 for the first, 3.31 for the second.
